Paper doi:10.1101/2024.11.13.623522 (bioRxiv, 2024)

Molecular target: T1, GST-tagged Shu (Shu-GST) (Drosophila, UniProt Q9W1I9 1-455)
T1 sequence (looked up): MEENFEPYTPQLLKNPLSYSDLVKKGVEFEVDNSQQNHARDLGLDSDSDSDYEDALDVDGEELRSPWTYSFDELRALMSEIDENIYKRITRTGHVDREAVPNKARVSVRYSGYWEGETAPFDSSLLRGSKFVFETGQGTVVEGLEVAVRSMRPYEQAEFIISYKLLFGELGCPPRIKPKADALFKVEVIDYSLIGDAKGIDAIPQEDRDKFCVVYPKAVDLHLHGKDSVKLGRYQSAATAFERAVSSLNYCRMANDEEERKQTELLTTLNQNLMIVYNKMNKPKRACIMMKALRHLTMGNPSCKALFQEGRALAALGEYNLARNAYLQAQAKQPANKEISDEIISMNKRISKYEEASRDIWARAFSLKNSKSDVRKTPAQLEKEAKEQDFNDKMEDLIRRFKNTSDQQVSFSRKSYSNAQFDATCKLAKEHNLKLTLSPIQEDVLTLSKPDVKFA
Test: pull-down

- pull-down efficiency relative to Armi WT: ~1.5 fold
B1: FLAG-tagged Armi S769I mutant, recombinant (natural protein, Drosophila, UniProt Q6J5K9 1-1188, looked up)
chain: MFTYVSKFFTNPDRNREDILESLDRENSFLDQKLMEEKMDQQLKANPNEINGVLSNKIAELTHGLSEMDVSKESSCTARKGVITSLDGDRGVIDKDVLFETKVAEDIILDLHVGCVVEYLTFTTGEAMRVVKVKSILEHSWEDTSQKEIEKAVDNLKNEKPTFFNTETRSVLGLISQRLASSIDVETEYGQLTVELDNIEMNFIPTNGDRVRLECNIQLDDGFVDKQGEILEVTKLFPTRIQEGEKCIVERVYVHMVVLGPETYILKTDLPTGTDLHLGDIVLADLIECQYSKFTRRAIKITPLEKNFGATKLTQQSSMGSSGSGKAVTVTGVNRFITAELWQKESVSLKLTNNLNRTLRLESITVCNDSESQLSVVSPLESKEISSGSEITVTFEIHTQFLGEAIEKYVLNFDLLKVRRVFTVIVCKTKEEVAEAEKRMIAAEALMAPGRNSQERSRFYANQVWCNKVDVIPGQQIVTKRRFVALRLGCFEVPKELRQICLTSERRQEMIKAIEQHYSFLTEPLSIKTYMHRFRLLLHLEEIECFVNFRNYDRDRAHFLRDGEFLTLQIENLAERRPSLVIGDTLRVINPWSDPDSQTTKSYEGIIHKVLFDRILLKFHSSFQEKYNGEDYRLEFYFSRYSFRKQHHAISKIVGVMGEDFLFPSKVTKRENPQLDVYMKDDDMYLYDSKLEWYNQSLNSIQKRAVFNILRGEAENIPYVLFGPPGSGKTMTLIETLLQLVRNLPGARILVGTPSNSSADLVTKRLIDIKALLQGDFIRLVSYNQVEKDLIPPEIMSYCATSDVGAVGSCEDKMMVTESGLKLRCQAKFIGTHRITISTCTTLGNFLQLGFPAGHFTHVLFDEAGQCTEPETMVPIVMLTKKRSQVVLSGDPRQLQSIVTSRIASKMGFSISFLERLLERSPYRKDLQRFPESSGYNPLVLTKLLYNYRALPSIMSIYSRLFYDDELIPVLSEKDSRESRLLSKLRCVFESEKDIPQAHGTFFYGIIGENRQNNDSPSWFNPQEVREVFLMTIALYRANVTADQIGIITPYQKQVKMLRSMFIGTDVVMPKIGSVEEFQGQERDIILISTVRSSEEILRMDARFSLGFVRCSKRLNVAVSRARAMMIIFGNPHLLAVDECWRQLILFCVKNNAYFGCDLPQMVINQKDEVPVCLETFVPSLNTTDDLN
